In patent US20170008955A1 (CNJ, published 2017):

Columns and labels:
cSNK:BSA conjugate [1] = target: T1, cSNK:BSA conjugate (bovine, head-to-tail cyclized; conjugated to BSA carrier); test: BLI (Octet), KD2; unlabelled reference row, taken as hu5E3
T1 construct: also called BSA-cSNK

Aβ42 oligomers [2] = target: T2, Aβ42 oligomers (UniProt P05067 672-713); test: Biacore (SPR), Aβ oligomer preparation AβO1' (HQ AβO1'); upper end of the range
T2 construct: domain: Aβ42; immobilized preparation containing monomers, low and high molecular weight oligomers; also called Amyloid beta oligomers; Aβ oligomers
T2 sequence (P05067 672-713 limits assumed): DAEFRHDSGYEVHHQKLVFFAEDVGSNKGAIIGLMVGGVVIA
Description: (§1) Using a Biacore™ 3000, Aβ42 oligomers were immobilized (containing monomers, low and high molecular weight oligomers) and BSA (reference surface) on 4 separate flow cells of a biosensorchip. Murine 5E3 or humanized 5E3 IgG1, IgG2, and IgG4 were then diluted, sequentially injected over the different immobilized peptides and antibody binding monitored in real time. Binding data was collected by sequentially injecting buffer blanks, 1/10 dilutions of m5E3 or 1 uM dilutions of hu5E3 control over separate flow cells immobilized with BSA or Aβ42 oligomer on another biosensor chip at a flow rate of 10 μl/minute. Association was allowed for 200 seconds, followed by dissociation for 500 seconds and binding responses collected 10 seconds before the end of the […]. All binding responses were double-referenced by subtracting buffer blanks and BSA reference surface binding.
(§2) Results: As shown in FIG. 9A and FIG. 9B, the humanized 5E3 isotypes bound to the Aβ42 oligomer preparation. Affinity constants were determined for hu5E3 IgG1 Aβ42 oligomer preparations.

Aβ42 oligomers [3] = target: T2, Aβ42 oligomers; test: Biacore (SPR), Aβ oligomer preparation AβO1' (HQ AβO1'); lower end of the range
Description: as §1, §2

cSNK:BSA conjugate [4] = target: T1, cSNK:BSA conjugate; test: BLI (Octet), KD1; unlabelled reference row, taken as hu5E3; unlabelled reference row at the top of the table
cSNK:BSA conjugate [5] = target: T1, cSNK:BSA conjugate; test: BLI 2:1 fit, site 1 (KD1); 25 nM row
Description: Biolayer interferometry (Octet […], ForteBio) was used to qualitatively/quantitatively assess the interactions between humanized versions of 5E3 and cSNK:BSA conjugate. […] MAbs were loaded onto sensors and then washed in PBST. Each sensor was associated with one of several cSNK:BSA standards (100 nM to 0 nM) and then washed in PBST. Data was processed statistically using ForteBio Data Analysis software to determine the strength of antigen-antibody binding (KD). For each mAb analyzed, a 2:1 model provided the “best fit”.

T1 sequence (P02769 25-607 limits assumed): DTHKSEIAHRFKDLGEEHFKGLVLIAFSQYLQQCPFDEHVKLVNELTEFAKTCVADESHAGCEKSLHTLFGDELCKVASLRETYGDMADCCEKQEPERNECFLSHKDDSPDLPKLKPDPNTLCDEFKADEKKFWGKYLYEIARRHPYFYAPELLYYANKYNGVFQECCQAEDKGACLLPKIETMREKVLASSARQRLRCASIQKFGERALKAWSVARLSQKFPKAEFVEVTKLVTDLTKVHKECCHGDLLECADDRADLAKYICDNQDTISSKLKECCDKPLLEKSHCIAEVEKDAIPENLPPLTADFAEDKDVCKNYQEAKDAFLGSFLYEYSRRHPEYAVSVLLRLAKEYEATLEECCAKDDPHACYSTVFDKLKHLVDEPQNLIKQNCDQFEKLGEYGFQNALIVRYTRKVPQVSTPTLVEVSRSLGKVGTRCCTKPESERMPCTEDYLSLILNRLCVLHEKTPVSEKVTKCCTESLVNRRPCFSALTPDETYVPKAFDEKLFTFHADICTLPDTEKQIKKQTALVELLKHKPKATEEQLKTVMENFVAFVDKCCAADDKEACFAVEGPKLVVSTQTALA

Binder | Kd (cSNK:BSA conjugate [1]) [nM] | Kd (Aβ42 oligomers [2]) [nM] | Kd (Aβ42 oligomers [3]) [nM] | Kd (cSNK:BSA conjugate [4]) [nM] | Kd (cSNK:BSA conjugate [5]) [nM]
hu5E3-IgG1 (antibody, V domains shown, human IgG1/kappa; also called humanized 5E3 IgG1; IHA variant) VH: QVQLQQSGPEVKKPGASVKISCKASGYIFTSYYIQWVIHAPGQGLEWIGWIYPGNVNTKYNEKFKGKATLTADKSSSTAYMELSSLTSEDTAVYFCARMDYEAHYWGQGTTVTVSS VL: DIQMTQSPSSLSASVGDRVTITCRASQEISGYLTWLQQKPEGAIKRLIYAASTLDSGVPKRFSGSRSGSDYSLTISSLQPEDFATYNCLQYANYPRTFGGGTKLEIK | 15.1 | ≤ 51700 | ≥ 34000 | 6.27 | –
rehu5E3-IgG4 (antibody, V domains shown, human IgG4/kappa; also called IgG4 rehu version) VH: QVQLQQSGPEVVKPGASVKISCKASGYIFTSYYIQWVIHAPGQGLEWIGWIYPGNVNTKYNEKFKGKATLTADKSSSTAYMELSSLRSEDSAVYFCARMDYEAHYWGQGTLVTVSS VL: DIQMTQSPSSLSASLGDRVTLTCRASQEISGYLTWLQQKPEKAIKRLIYAASTLDSGVPKRFSGSRSGSDYTLTISSLQPEDFADYNCLQYANYPRTFGGGTKLEIK | – | – | – | – | 0.557
